Tests used:
Type in all cases: biochemical, Herbaspirillum huttiense
[1] = substrate: C[C@H](O)[C@@H](O)CC(=O)C(=O)O; assay: spectrophotometric NADH formation; conditions: NAD+ as coenzyme, 50 mM Tris-HCl pH 9.0
[2] = substrate: O=C(O)C(=O)C[C@H](O)CO; assay: spectrophotometric NADH formation; conditions: NAD+ as coenzyme, 50 mM Tris-HCl pH 9.0
purified protein [3] = substrate: O=C(O)[C@@H](O)[C@H](O)[C@H](O)[C@H](O)CO; assay: purified protein; conditions: 50 mM HEPES-NaOH pH 7.2, 1.5 mM NAD+ for coupling enzyme
purified protein [4] = substrate: O=C(O)[C@@H](O)[C@H](O)[C@H](O)CO; assay: purified protein; conditions: 50 mM HEPES-NaOH pH 7.2, 1.5 mM NAD+ for coupling enzyme
[5] = substrate: O=C(O)C(=O)C[C@@H](O)CO; assay: coupled spectrophotometric assay (alpha-KGSA dehydrogenase); conditions: 50 mM HEPES-NaOH pH 7.2, 1.5 mM NAD+ for coupling enzyme, 1 mM MgCl2 if necessary
[6] = substrate: O=C(O)C(=O)C[C@H](O)CO; assay: as above; conditions: 50 mM HEPES-NaOH pH 7.2, 1.5 mM NAD+ for coupling enzyme, 1 mM MgCl2 if necessary

B1: C785_RS13675 (D-KDP/L-KDF 4-dehydrogenase) (Herbaspirillum huttiense subsp. putei IAM 15032) (protein)
chain: MSASTGRLAGKTVLITAAAQGIGRASTELFAREGARVIATDISKTHLEELASIAGVETHLLDVTDDDAIKALVAKVGTVDVLFNCAGYVAAGNILECDDKAWDFSFNLNAKAMFHTIRAVLPGMLAKKAGSIVNIASAASSVKGVANRFAYGASKAAVVGLTKSVAADFVSQGIRCNAICPGTIESPSLNQRISTQAKETGKSEDEVRAAFVARQPMGRIGKAEEVAALALYLASDESNFTTGSIHMIDGGWSN
notes: full length, N-terminal (His)6-tag (pQE-80L), expressed in E. coli DH5alpha, Ni-NTA
Work on B1 yielded a Km [1] of 169 ± 3 µM, a kcat [1] of 32.17 ± 0.483 s⁻¹ and a Km [2] of 1120 ± 210 µM. The kcat [2] was 27.17 ± 3.67 s⁻¹.

B2: C785_RS13685 (D-arabinonate dehydratase) (Herbaspirillum huttiense subsp. lycopersici) (protein)
chain: MKANSPIIRLNPVDDVVIARQQLISGTVLQDEGGLKVQGLIPAGHKMATRAISAGEPVKRYGQIIGTASQDIAPGQHVHTHNLAMAEFSREHHFGADVKPVDFVAEPATFMGIVRPDGRVATRNYIGVLTSVNCSATAARAIADYFRRDIHPEVLADYPNIDGVVALTHGQGCATDSQGEPLQILRRTLAGYATHPNFAAVLVVGLGCETNQISGLMESHNLKEGEYFHTFTIQGTGGTAKTVALGIEKIKKMLPKANDIKREPVSAKHLTLGLQCGGSDGYSGITANPALGAAVDLLVRHGGTAILSETPEIYGAEHLLTRRAVSPEVGEKLLARIAWWEEYCAKNDAEMNNNPSAGNKAGGLTTILEKSLGAVAKGGTTNLVDVYKYAETVTARGFVFMDTPGYDPISATGQVAGGANMICFTTGRGSAYGCAPAPSLKLATNTALWQRQEEDMDINCGEIADSNVTPQEVGERFFQMILDTASGKKTKSELHGYGQDEFVPWHIGVYT
notes: full length, N-terminal (His)6-tag (pQE-80L), expressed in E. coli DH5alpha, Ni-NTA; iron protein stored with Fe2+ and DTT
With B2 the Km (purified protein [3]) was 5910 ± 90 µM, the kcat (purified protein [3]) was 0.0393 ± 0.0005 s⁻¹ and the Km (purified protein [4]) was 202 ± 3 µM. It also gave a kcat (purified protein [4]) of 9.03 ± 0.067 s⁻¹.

B3: C785_RS13710 (KDP dehydratase) (Herbaspirillum huttiense subsp. lycopersici) (protein)
chain: MRLIQYRDLHGQRRVGIVNGASIQVLGEVDTMRELGLLAIERHTGLERLAQLLNTDRSEDYAAILAEGRILAPLDHPDPAHCRVSGAGTTHLGSATTRDKMHRRIEGDELDKTDTQLMIEWGIAGGRPAPGTVGVQPEWFYKGDGHCIVAPGQPLPRPDFALDGGEEPEIVGLYLIDDAGCPRRLGFAIGNEFSDHVMERRNYLYQGHSKLRHCAFGPELLVGLPPAHLVGMTRIRRRGRVIWEQEFLTGPDNMCHSIENLEYHTFKYAHLLHAGDVHAHFMGAANLSFAYSVRTEDGDSIEISIPDFGAPLVNGIQHVQSNLRPGGVRQL
notes: full length, N-terminal (His)6-tag, expressed in Pseudomonas putida KT2442-oxyR1 (pUCP/C785_RS13710), Ni-NTA
For B3, the Km [5] was 533 ± 160 µM, the kcat [5] was 0.202 ± 0.035 s⁻¹ and the Km [6] was 1910 ± 200 µM. It also gave a kcat [6] of 0.18 ± 0.005 s⁻¹.

From paper PMC6336799, “Novel non-phosphorylative pathway of pentose metabolism from bacteria” (Scientific Reports, 2019)
